Assay results published in the supplement of paper PMC10201428.
± gives the standard deviation of the averaged measurements.

B1: library; a variant is named by its letters at N, in order (parent)
chain: AATGTTGTTGATGCAACCATAAAGTGATATTTAATAATTATTTATAATCAGCAACTTAACCACAAAACAACCATATATTGATATNTCACAAAACAACCATAANTTGATATTTTTGTGAATCGAGTATTTCAGCAAAACTACTGCAGTAAGAA

Experiments:
[1] = variants of: B1; test: relative integration efficiency (T-LR orientation) vs wild-type transposon end (log2 (normalized fold change)); transposon end mutated: left end; higher = more efficient transposition; conditions: with VchCAST RNA-guided transposition machinery (E. coli BL21(DE3) host, lacZ target)
Method in brief: (§1)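 Relative integration efficiency is a fold change of output over input barcode abundance, normalised to reference barcodes and log-transformed. Input plasmids and genomic integration junctions were PCR-amplified and Illumina-sequenced from E. coli BL21(DE3) co-transformed with a T7-driven effector plasmid and pUC57 donor pools of 1549 left-end or 1849 right-end transposon variants. Plating was done with 0.1 mM IPTG at 37°C for 18 h, with two biological output replicates and four reference barcodes.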

[2] = variants of: B1; test: relative integration efficiency (T-RL orientation) vs wild-type transposon end (log2 (normalized fold change)); transposon end mutated: left end; higher = more efficient transposition; conditions: with VchCAST RNA-guided transposition machinery (E. coli BL21(DE3) host, lacZ target)
Method in brief: as §1

| Variant | relative integration efficiency (log2) [1] | relative integration efficiency (log2) [2] |
| --- | --- | --- |
| CG C18G C72G C98G | -0.915 ± 0.23 | -0.987 ± 0.56 |
| CG A62C C63A A64C A65C | -0.604 ± 0.18 | -0.324 ± 0.044 |
| CG A109C T110G | -1.25 ± 1.3 | -0.936 ± 0.53 |
| CG A62C C63A | -0.193 ± 0.12 | 0.182 ± 0.065 |
| CG A123C G124T T125G | -0.277 ± 0.038 | -0.171 ± 0.067 |
| CG A99G | -0.0966 ± 0.58 | -0.278 ± 0.18 |
| CG A99C | -1.01 ± 0.78 | -1.23 ± 0.65 |
| CG A99T | -1.41 ± 0.62 | -0.877 ± 0.54 |
| CG A92T A93T C94G A95T | -3.64 ± 1.2 | -1.61 ± 0.83 |
| CG A107C T108G | -0.997 ± 1.2 | -1.01 ± 0.6 |
| CG A95C A96C | -0.693 ± 0.86 | -0.385 ± 0.4 |
| CG A77C T78G T79G G80T | -2.28 ± 1.1 | -1.57 ± 0.49 |
| CG A67C C68A | -0.165 ± 0.81 | -0.108 ± 0.25 |
| CG A90C | -0.155 ± 0.19 | -0.278 ± 0.11 |
| CG A90T | -0.375 ± 0.31 | -0.404 ± 0.16 |
| CG A90G | -0.331 ± 0.48 | -0.339 ± 0.053 |
| CG A81C T82G | -1.43 ± 0.033 | -0.963 ± 0.26 |
| CG A93T C94G | -1.04 ± 0.89 | -1.35 ± 0.65 |
| CG C17G C18G | -0.437 ± 0.49 | -0.313 ± 0.33 |

| Variant | relative integration efficiency (log2) [1] | relative integration efficiency (log2) [2] |
| --- | --- | --- |
| CG A75T T76A | -0.104 ± 0.2 | -0.129 ± 0.13 |
| CG A65T A66T A67T C68G | -0.641 ± 0.54 | -0.247 ± 0.37 |
| CG A70T C71G C72G A73T | -2.15 ± 0.26 | -2.22 ± 0.88 |
| CG A101T A102T | -0.713 ± 0.59 | -0.513 ± 0.27 |
| CG A58C A59C | -0.146 ± 0.33 | -0.0826 ± 0.066 |
| CG C49A A50C G51T C52A | -1.02 ± 1.1 | -0.71 ± 0.6 |
| CG A69C A70C | -0.684 ± 0.62 | -0.537 ± 0.29 |
| CG A109T T110A | -0.674 ± 0.43 | -0.271 ± 0.27 |
| CG C17G C18G A19T T20A | -1.28 ± 0.64 | -1.56 ± 0.94 |
| CG A93C | -0.0609 ± 0.5 | -0.288 ± 0.19 |
| CG A93G | -0.13 ± 0.37 | -0.207 ± 0.083 |
| CG A93T | -0.975 ± 0.63 | -0.479 ± 0.33 |
| CG A75C T76G A77C T78G | -2.25 ± 1.6 | -1.8 ± 0.61 |
| CG A62G | 0.446 ± 0.39 | 0.318 ± 0.17 |
| CG A62C | 0.284 ± 0.025 | -0.0795 ± 0.022 |
| CG A62T | 1.22 ± 0.39 | 1.17 ± 0.29 |
| CG A83C T84G | -0.6 ± 0.69 | -0.94 ± 0.4 |
| CG C17A C18A | -1.03 ± 1 | -1.15 ± 0.71 |
| CG A107C T108G A109C T110G | -2.3 ± 1.2 | -1.64 ± 0.79 |

| Variant | relative integration efficiency (log2) [1] | relative integration efficiency (log2) [2] |
| --- | --- | --- |
| CG A119T | 0.893 ± 0.42 | 0.51 ± 0.29 |
| CG A119G | 0.273 ± 0.044 | 0.0234 ± 0.071 |
| CG A119C | 0.11 ± 0.18 | -0.107 ± 0.1 |
| CG A64C A65C A66C A67C | -0.691 ± 0.34 | -0.323 ± 0.18 |
| CG A99T T100A | -1.17 ± 0.8 | -1.19 ± 0.47 |
| CG A59T C60G C61G A62T | 0.314 ± 0.15 | 0.00645 ± 0.092 |
| CG A75T T76A A77T T78A | -0.0527 ± 0.32 | -0.453 ± 0.37 |
| CG A92C A93C | -0.222 ± 0.86 | -0.331 ± 0.24 |
| CG A91C A92C | 0.242 ± 0.39 | -0.116 ± 0.2 |
| CG A69T A70T C71G C72G | -1.93 ± 1.4 | -1.77 ± 0.77 |
| CG A107C | -0.569 ± 1.1 | -0.425 ± 0.35 |
| CG A107T | -0.794 ± 0.79 | -0.795 ± 0.44 |
| CG A107G | -0.592 ± 0.8 | -0.554 ± 0.26 |
| CG C17G | 0.155 ± 0.37 | -0.344 ± 0.25 |
| CG C17T | -0.0678 ± 0.41 | -0.0235 ± 0.16 |
| CG C17A | 0.131 ± 0.49 | 0.0401 ± 0.23 |
| CG A59C C60A C61A A62C | 0.009 ± 0.11 | 0.0247 ± 0.0075 |
| CG A54G | 0.358 ± 0.56 | 0.00787 ± 0.0088 |
| CG A54T | 0.264 ± 0.087 | 0.224 ± 0.12 |
